The source of these data is patent publication US20240076371A1, “COMPOSITIONS AND METHODS FOR TREATING OSTEOARTHRITIS, RHEUMATOID ARTHRITIS, AND JOINT AND TENDON DISORDERS” (BOARD OF REGENTS, THE UNIVERSITY OF TEXAS SYSTEM, priority 2021, published 2024).

What all share (assay type): in vivo, mouse
The test system of test [1] is post-traumatic OA model (DMM) in male C57BL/6 mice. In words: DMM OA model: synovitis score. As to conditions: vs saline. The protocol:
(§1) Destabilization of the medial meniscus (DMM) surgery was performed on the right knee joint of mice (Glasson S S, et al. Osteoarthritis and cartilage. 2007; 15(9):1061-9). Briefly, a 3 mm longitudinal incision over the distal patella to proximal tibial plateau was made. The joint capsule immediately medial to the patellar tendon was incised with a #15 blade and the joint capsule opened with micro-iris scissors. Blunt dissection of the fat pad over the intercondylar area was then performed to expose the intercondylar region, providing visualization of the meniscotibial ligament of the medial meniscus. Mild hemorrhage from the fat pad upon blunt dissection was controlled by pressure from absorption spears. Sectioning of medial meniscotibial ligament with micro-surgical knife, with the blade directed proximo-laterally, gave destabilization of the medial meniscus (DMM). Sham surgery was performed with the ligament visualized but not transected.
The degree of synovitis is determined considering synovial membrane thickening and synovial hyperplasia and scored on a scale of 0-3 (0, no synovitis; 1, mild synovitis; 2, moderate synovitis; and 3, severe synovitis) (Krenn V, et al. Pathology, research and practice. 2002; 198(5):317-25; and Huesa C, et al. Annals of the rheumatic diseases. 2016; 75(11):1989-97. Blinded histomorphometric assessment was performed.

The test system is the same in test [2]. In words: DMM OA model: immunohistochemistry of Col X and MMP13 in articular cartilage. On the procedure:
Destabilization of the medial meniscus (DMM) surgery was performed on the right knee joint of mice (Glasson S S, et al. Osteoarthritis and cartilage. 2007; 15(9):1061-9). Briefly, a 3 mm longitudinal incision over the distal patella to proximal tibial plateau was made. The joint capsule immediately medial to the patellar tendon was incised with a #15 blade and the joint capsule opened with micro-iris scissors. Blunt dissection of the fat pad over the intercondylar area was then performed to expose the intercondylar region, providing visualization of the meniscotibial ligament of the medial meniscus. Mild hemorrhage from the fat pad upon blunt dissection was controlled by pressure from absorption spears. Sectioning of medial meniscotibial ligament with micro-surgical knife, with the blade directed proximo-laterally, gave destabilization of the medial meniscus (DMM). Sham surgery was performed with the ligament visualized but not transected. Immunohistochemistry. The ABC (avidin-biotin-peroxidase complex) Immunostaining Assay Kit (Vector Laboratories, PK-6101) was used. Briefly, bone tissue sections were antigen unmasked using sodium citrate buffer (pH 6.0) at 65° C. for 2 h for MMP13 staining and trypsin digestion buffer (pH 7.8) at 37° C. for 30 min for collagen X staining. Bone tissue sections were then treated with goat normal serum for 20 min at room temperature to block nonspecific background staining. Tissue sections were stained with anti-MMP13 polyclonal antibody (1:200 dilution, Abcam, ab39012), or labeled with anti-collagen X monoclonal antibody (1:100 dilution, Thermo Fisher, 14-9771-82) at 4° C. overnight. Then, the sections were incubated for 30 min with biotin-labeled secondary antibody and VECTASTAIN ABC Reagent for 30 min Samples were washed in PBS buffer and developed in DAB (SK4100) chromogen solution (Vector Laboratories, Burlingame, CA, USA). Tissues were then counterstained with VECTOR Hematoxylin (H-3401) for 5 min at room temperature. Slides were then dehydrated, cleared, and mounted. Sections were photographed using the Keyence microscope (BZ-X710, Keyence, Osaka, Japan). The percentage of MMP13 or Col X-positive chondrocytes were quantified using NIH Image J software.

Test [3] has the same test system. Nature of the test: DMM OA model: micro-computed tomography of tibia subchondral bone. As to conditions: eight weeks post-surgery, vs saline-treated DMM mice. The protocol: as §1
Micro-computed tomography. Following behavioral tests, mice were sacrificed and hindlimbs were dissected immediately and fixed in 4% paraformaldehyde. The structural properties of subchondral bone were evaluated using a 3D reconstruction of μCT imaging system (Brüker SkyScan 1173; Brüker microCT, Kontich, Belgium). Samples were scanned in saline with the following settings: 60 kV, […] beam intensity, 0.5 mm aluminum filter, 0.7° rotation step, 4-frame averaging, 1090 ms integration time, 1024×1024 pixel matrix, and a 10 μm isotropic voxel dimension. After scanning, noise was removed from the images by eliminating disconnected objects smaller than 4 pixels in size. Morphometric analysis was performed on 50 slices extending proximally, beginning with the first slice in which the tibia condyles had fully merged. The subchondral bone was segmented from the cortical shell manually on key slices using a contouring tool, and the contours were morphed automatically to segment the trabecular bone on all slices. The morphometry was reconstructed and analyzed. A grayscale value of 95 in a set of 8-bit slices was set as the threshold and was applied to the specimens after comparing grayscale and binarized images in both groups. After thresholding, the BV/TV (%), Tb.Th (mm), Tb.Sp (mm), and Tb.N (mm^−1) were quantified.

Test [4] has the same test system. Nature of the test: DMM OA model: Von Frey filament test (paw withdrawal threshold). The protocol:
as §1
Animal behavioral tests. The paw withdraw threshold was measured using von Frey filaments 0.007 to 2. Mice were placed in acrylic chambers (5.5×10 cm) suspended above a wire mesh grid and allowed to acclimatize to the testing apparatus for 30 minutes prior to experiments. When the mouse was not moving the von Frey filaments were pressed against the plantar surface of the paw until the filament buckled and held for a maximum of 3 seconds. A positive response was noted if the paw was sharply withdrawn on application of the filament. Flinching immediately upon removal of the filament was also considered a positive response (Chaplan S R, et al. Journal of neuroscience methods. 1994; 53(1):55-63; and Bonin R P, et al. Molecular pain. 2014; 10:26). Testing began with filament number 0.4 and progressed according to an up-down method.

B1: M1 antibody: antibody with variable heavy chain SEQ ID NO: 58 and variable light chain SEQ ID NO: 60; inhibits or blocks opening of Cx43 hemichannel (antibody, V domains shown)
VH: EVQLQQPGAELVKPGASVKLSCKASGYTFTSYYMYWVKQRPGQGLEWIGGINPSNGGTNFNEKFKNKATLTVDKSSSTAYMQLSSLTSEDSAVYYCTREGNPYYTMNYWGQGTSVTVSS
VL: DIVMTQSPSSLSVSAGEKVTMSCKSSQSLLNSGNQKTYLAWYQQKPGQPPKLLIYGASTRESGVPDRFTGSGSGTDFTLTISSVQAEDLAVYYCQNDHSYPFTFGSGTKLEIK
As for B1, the “degree of synovitis (synovitis score)” value in test [1] (DMM mice, i.p. twice at 30 minutes and four weeks post-surgery, 8 weeks after DMM) is “marked reduction”. For the same molecule, the “degree of synovitis (synovitis score)” value in test [1] (delayed treatment: i.p. at 10, 25 and 40 days after DMM surgery, eight weeks after DMM) is “significant reduction”. For the same molecule, the “distribution of MMP13-positive chondrocytes in articular cartilage zones” value in test [2] (DMM mice, eight weeks, saline: three zones) was “localized mainly in the middle and deep zones”. Moreover, the “percentage of Col X positive cells” value in test [2] (articular cartilage, eight weeks following DMM, i.p. twice, vehicle-treated 52%) is given as 38%. For the same molecule, the “percentage of MMP-13-positive cells in the articular cartilage” value in test [2] (eight weeks after DMM, i.p. twice, saline-treated 36%) turned out to be 27%. The “MMP13 score, ratio of integrated optical density (IOD) to articular cartilage area” value in test [2] (single i.p. injection at 30 minutes post-surgery, eight weeks after DMM, saline 0.17±0.016) is on record as 0.10±0.009. For the same molecule, in test [3], the “bone mineral density (BMD) at the tibia subchondral bone” value is “significantly decreased”, the “bone volume fraction (BV/TV) at the tibia subchondral bone” value is listed as “significantly decreased”, the “trabecular separation (Tb.Sp) at the tibia subchondral bone” value is listed as “elevated” and the “trabecular thickness (Tb.Th) at the tibia subchondral bone” value is recorded as “significantly decreased”. Also, in test [4] (4 weeks after DMM, vs saline), the “response threshold to mechanical stimuli (von Frey)” value is “slight trend of increased response threshold”. Moreover, the “paw withdrawal threshold relative to saline treated DMM mice” value in test [4] (8 weeks after DMM, i.p. twice) is recorded as 121.4%. Further, the “paw withdraw threshold in sham mice, saline vs antibody” value in test [4] (sham mice at 8 weeks) is on record as “No difference”. Also, in test [4] (single i.p. injection, eight weeks after DMM, vs saline), the “paw withdraw threshold to mechanical stimuli (von Frey)” value is on record as “slight trend of increased paw withdraw threshold”.
